# Assay results as given in article PMC10810282.
# How the values were obtained:
# [1] = biological target: separate RPA2 WH-domain (pTYB12-WH), recombinant; assay: MST; 100 nM target labelled on cysteines (RED-…), concentration gradient of unlabelled ligand; Monolith NT.115, premium coated capillaries, 40% MST power; 50 mM Tris-HCl pH 7.5, 100 mM NaCl, 1 mM DTT, 0.05% Tween-20, 0.5 mg/ml BSA; KD from at least three runs
# [2] = biological target: mouse UNG2 wild type, recombinant (mUNG2-pET28a) (mouse) (UniProt P97931); assay: as above
Kd [1] [µM],Kd [2] [µM],Substance
0.86,–,"mouse UNG2 wild type, recombinant (mUNG2-pET28a) (from UniProt P97931-1 1-306) (domain or fragment)"
–,1.26,"separate RPA2 WH-domain (pTYB12-WH), recombinant"
